In patent US20240124590A1 (ULTRAHUMAN EIGHT, published 2024):

Assays:
[1] = target: T1, rhesus monomeric VEGFR2-his protein (rhesus); assay: SPR (Biacore), IgG captured, VEGFR2-his analyte
T1 construct: Soluble analyte; whole entry named; also called rhesus VEGFR2-his; not shown: his tag
T1 chain: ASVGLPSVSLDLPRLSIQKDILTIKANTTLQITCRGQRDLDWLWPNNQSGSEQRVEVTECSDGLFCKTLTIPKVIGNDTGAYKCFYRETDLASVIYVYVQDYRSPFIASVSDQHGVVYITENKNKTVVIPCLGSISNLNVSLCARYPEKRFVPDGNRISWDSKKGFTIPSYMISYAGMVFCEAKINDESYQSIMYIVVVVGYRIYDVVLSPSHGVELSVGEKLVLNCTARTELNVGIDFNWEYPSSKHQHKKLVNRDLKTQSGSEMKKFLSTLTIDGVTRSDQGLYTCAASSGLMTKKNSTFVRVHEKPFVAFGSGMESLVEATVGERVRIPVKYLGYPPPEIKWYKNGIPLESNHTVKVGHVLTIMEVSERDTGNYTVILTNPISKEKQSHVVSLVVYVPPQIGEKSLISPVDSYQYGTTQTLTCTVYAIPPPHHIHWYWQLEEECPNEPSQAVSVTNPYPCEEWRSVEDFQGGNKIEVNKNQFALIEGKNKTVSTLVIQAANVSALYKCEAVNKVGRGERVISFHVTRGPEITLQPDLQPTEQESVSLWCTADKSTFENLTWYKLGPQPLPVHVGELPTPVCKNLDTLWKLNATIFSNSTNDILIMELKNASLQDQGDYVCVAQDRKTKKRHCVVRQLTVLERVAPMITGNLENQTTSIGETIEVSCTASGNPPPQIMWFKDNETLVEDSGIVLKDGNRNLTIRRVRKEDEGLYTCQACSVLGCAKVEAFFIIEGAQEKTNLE
Description: (§1) Affinity (KD) of purified IgGs was determined via SPR with antigen in-solution on a Biacore 3000 (GE). A mouse anti-human antibody (CH1 specific) was immobilized on a CM5 Sensor Chip to a level of 2000 RU in acetate buffer at pH 4.5 using amine coupling following the Wizard instructions for two channels. One channel was used for background signal correction. The standard running buffer HBS-EP pH 7.4 was used. Regeneration was performed with a single injection of 10 μl of 10 mM Glycine at pH 1.5 at 20 μl/minute. IgG samples were injected for 2 minutes at 50 nM at 30 μl/min followed by and off-rate of 60 seconds. […] The obtained sensorgrams were analysed using the Biacore 3000 evaluation (BIAevaluation) software. The KD was calculated by simultaneous fitting of the association and dissociation phases to a 1:1 Langmuir binding model.

[2] = target: T2, human monomeric VEGFR2-his protein (human, UniProt P35968 20-764); assay: SPR (Biacore), IgG captured, VEGFR2-his analyte
T2 construct: Soluble analyte; whole entry named; also called human VEGFR2-his; not shown: his tag
Description: as §1

[3] = target: T3, recombinant ectodomain of rhesus VEGFR2 (rhesus); assay: direct ELISA
T3 construct: whole entry named
T3 chain: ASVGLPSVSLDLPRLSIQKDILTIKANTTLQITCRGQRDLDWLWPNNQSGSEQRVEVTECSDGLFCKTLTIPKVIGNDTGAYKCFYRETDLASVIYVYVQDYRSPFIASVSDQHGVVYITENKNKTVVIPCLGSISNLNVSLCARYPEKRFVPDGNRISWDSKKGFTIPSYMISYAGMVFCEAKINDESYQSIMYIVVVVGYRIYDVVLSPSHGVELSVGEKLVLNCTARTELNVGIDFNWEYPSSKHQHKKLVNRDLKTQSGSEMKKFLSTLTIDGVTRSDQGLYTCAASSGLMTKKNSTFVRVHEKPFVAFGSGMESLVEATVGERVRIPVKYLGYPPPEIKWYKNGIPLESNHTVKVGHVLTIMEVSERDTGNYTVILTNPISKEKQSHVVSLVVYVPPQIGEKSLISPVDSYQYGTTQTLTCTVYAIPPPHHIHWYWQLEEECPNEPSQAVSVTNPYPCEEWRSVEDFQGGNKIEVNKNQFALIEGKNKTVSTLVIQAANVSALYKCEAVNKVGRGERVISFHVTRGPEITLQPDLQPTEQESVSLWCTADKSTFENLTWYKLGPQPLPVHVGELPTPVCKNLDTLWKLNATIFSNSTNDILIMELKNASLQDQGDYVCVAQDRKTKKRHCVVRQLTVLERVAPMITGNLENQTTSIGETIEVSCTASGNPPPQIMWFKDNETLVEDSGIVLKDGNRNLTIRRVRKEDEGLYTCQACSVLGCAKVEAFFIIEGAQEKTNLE

[4] = target: T4, recombinant ectodomain of human VEGFR2 (human, UniProt P35968 20-764); assay: direct ELISA
T4 construct: whole entry named

[5] = target: T5, cyno PD1 protein (construct not stated) (cynomolgus monkey, UniProt Q15116 25-170 (human entry), limits assumed); assay: direct ELISA
T5 construct: may be two constructs; also called cyno PD1 in the Alphascreen screen
T5 chain: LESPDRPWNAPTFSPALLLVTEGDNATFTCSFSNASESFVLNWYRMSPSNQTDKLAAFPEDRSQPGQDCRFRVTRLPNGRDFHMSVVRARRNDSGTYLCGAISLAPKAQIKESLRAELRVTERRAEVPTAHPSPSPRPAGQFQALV

[6] = target: T6, human PD1 protein (construct not stated) (human, UniProt Q15116 25-170, limits assumed); assay: direct ELISA
T6 construct: Coated protein of the off-target ELISA; whole entry named

[7] = target: T7, human KDR (VEGFR2) on cells (human, UniProt P35968 20-1356); assay: cell microarray re-array, transfected HEK293
T7 construct: Transfected HEK293 cells (arrays, flow cytometry) and human VEGFR2 reporter cells
Description: (§2) Antibody binding was detected using AF647 fluorescent secondary anti-human IgG1 antibody. Primary hits (duplicate spots) were identified by analysing fluorescence (AF647 and ZsGreen1) on ImageQuant. Vectors encoding all hits were sequenced to confirm their correct identities. […] Slides were analysed as above. Flow cytometry confirmation screen: Expression vectors encoding ZsGreen1 only, or ZsGreen1 and PD1, FZDS, KDR or ULBP2, were transfected into human HEK293 cells. Each live transfectant was incubated with […] of each of the test antibodies and the Isotype control antibody. Cells were washed, and incubated with the same AF647 anti-human IgG Fc detection antibody as used in the cell microarray screens. Cells were again washed, and analysed by flow cytometry using an Accuri flow cytometer (BD). A 7AAD live/dead dye was used to exclude dead cells, and ZsGreen1-positive cells (i.e. transfected cells) were selected for analyses.

[8] = target: T8, human PD1 expressed on cells (human, UniProt Q15116 25-288); assay: cell microarray re-array, transfected HEK293
T8 construct: also called human PD1+ CHO cells; PD1-transfected HEK293 cells
Description: as §2

[9] = target: T9, human ULBP2 (UL16 binding protein 2) on transfected HEK293 cells (human, UniProt Q9BZM5 26-217); assay: cell microarray re-array, transfected HEK293
T9 sequence: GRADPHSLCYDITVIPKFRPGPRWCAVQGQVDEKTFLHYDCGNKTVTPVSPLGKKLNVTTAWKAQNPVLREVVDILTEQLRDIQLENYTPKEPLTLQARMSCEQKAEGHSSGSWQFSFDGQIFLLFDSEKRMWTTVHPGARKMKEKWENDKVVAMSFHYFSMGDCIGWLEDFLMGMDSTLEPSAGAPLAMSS
Description: as §2

[10] = target: T10, human FZD5 (frizzled class receptor 5) on transfected HEK293 cells (human, UniProt Q13467 27-585); assay: cell microarray re-array, transfected HEK293
T10 construct: also called FZDS; FZ5
Description: as §2

Measured: binding result

T6 sequence (Q15116 25-170 limits assumed): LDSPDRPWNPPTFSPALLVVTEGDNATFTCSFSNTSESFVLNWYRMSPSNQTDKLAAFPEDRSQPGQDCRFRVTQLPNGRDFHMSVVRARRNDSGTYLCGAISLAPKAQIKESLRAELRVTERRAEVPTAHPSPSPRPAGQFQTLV
T8 sequence (Q15116 25-288 limits assumed): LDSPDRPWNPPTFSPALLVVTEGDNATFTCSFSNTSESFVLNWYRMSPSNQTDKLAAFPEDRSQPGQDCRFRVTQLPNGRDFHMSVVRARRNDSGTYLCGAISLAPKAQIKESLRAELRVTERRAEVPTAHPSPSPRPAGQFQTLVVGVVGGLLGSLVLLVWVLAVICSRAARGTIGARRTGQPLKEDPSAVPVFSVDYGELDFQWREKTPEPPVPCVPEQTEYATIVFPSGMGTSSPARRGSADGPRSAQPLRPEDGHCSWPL
T10 sequence (Q13467 27-585 limits assumed): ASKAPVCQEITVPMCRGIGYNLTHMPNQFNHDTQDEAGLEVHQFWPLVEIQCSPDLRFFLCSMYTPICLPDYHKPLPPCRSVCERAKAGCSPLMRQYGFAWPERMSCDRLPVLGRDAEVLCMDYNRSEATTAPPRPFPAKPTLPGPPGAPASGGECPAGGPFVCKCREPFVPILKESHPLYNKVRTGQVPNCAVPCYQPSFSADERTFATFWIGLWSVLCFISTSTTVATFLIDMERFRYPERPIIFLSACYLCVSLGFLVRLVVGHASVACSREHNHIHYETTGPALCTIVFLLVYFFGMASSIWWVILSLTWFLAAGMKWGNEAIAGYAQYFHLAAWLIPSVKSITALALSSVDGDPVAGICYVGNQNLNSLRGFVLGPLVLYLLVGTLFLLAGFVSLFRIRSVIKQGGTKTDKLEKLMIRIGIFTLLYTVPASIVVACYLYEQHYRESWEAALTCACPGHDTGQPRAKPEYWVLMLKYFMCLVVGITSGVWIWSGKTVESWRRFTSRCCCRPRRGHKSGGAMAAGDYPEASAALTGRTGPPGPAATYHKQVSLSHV

B1: mVH/mVL Mab005-IgG1 (antibody, V domains shown)
VH: EVMLVESGGGLVKPGGSLKLSCAASGFTFSSYMMSWVRQTPEKRLEWVATISGGGANTYYPDSVKGRFTISRDNAKNTLYLQMSSLRSEDTALYYCARQLYYFDYWGQGTTLTVSS
VL: DIQMTQSPASQSASLGEGVTITCLASQTIGTWLTWYQQKPGKSPQLLIYTATSLADGVPSRFSGSGSGTKFSFKISSLQAEDFVTYYCQQVYSIPWTFGGGTKLEIK
notes: Murine PD1-mVH/PD1-mVL on human IgG1null + Ckappa; also called original murine hybridoma v-domains
binds: [1] | [2] | [3] | [4] | [5] | [6] | [7] | [8] | [9] | [10]
